Results from patent US8680041B2, “Genetic variations associated with tumors” (Genentech, Inc., priority 2006, dated 2014).

How the values were obtained:
p110alpha E545K = target: T1, p110alpha E545K (Homo sapiens, UniProt P42336, E545K); assay: Co-immunoprecipitation of HA-tagged p85α with p110α in transfected Cos 7 cells; type: binding; set-up: key: “yes” (“Y”); “no” (“N”); conditions: HA bead immunoprecipitation, blot
T1 construct: expressed in transfected cells; host or cells: Cos 7
Protocol: (§1) The ability of p85α mutants to bind to p110α was assessed. Cos 7 cells were transiently transfected with nucleic acid encoding N-terminally HA-tagged p85α protein (either wild-type or mutant, as indicated in Table 2 below) and with nucleic acid encoding p110α (either wild-type or mutant, as indicated in Table 2 below). Proteins were immunoprecipitated using HA beads, separated by SDS-PAGE, transferred to nitrocellulose, and detected using anti-HA and anti-p110α antibodies. Binding of p85α to p110α is indicated as either “yes” (“Y”) or “no” (“N”) in Table 2. In the second row of Table 2, the term “p85 Dominant Negative” refers to a known dominant negative form of p85α in which the p110α binding domain from amino acids 479-513 is deleted. The remaining mutant forms of p85α listed in the first column of Table 2 were discovered pursuant to this study. In the header row of Table 2, the terms “p110alpha E545K” and “p110alpha H1047R” refer to two known mutational “hot spots” in p110α which result in constitutively active p110α.

p110alpha H1047R = target: T2, p110alpha H1047R (Homo sapiens, UniProt P42336, H1047R); assay: as above; type: binding; set-up: key: “yes” (“Y”); “no” (“N”); conditions: HA bead immunoprecipitation, blot
T2 construct: expressed in transfected cells; host or cells: Cos 7
Protocol: as §1

p110alpha WT = target: T3, p110alpha WT (Homo sapiens, UniProt P42336); assay: as above; type: binding; set-up: key: “yes” (“Y”); “no” (“N”); conditions: HA bead immunoprecipitation, blot
T3 construct: expressed in transfected cells; host or cells: Cos 7
Protocol: as §1

wild-type p110α = assay: Fluorescence polarization assay of p110α activity in p85α/p110α complexes, phosphoinositide as substrate; type: biochemical; conditions: for p110α activity of the complex compared with the wild type complex (in words): absence of peptide; for Activity of p110α in the complex, No peptide: no phosphotyrosine peptide; for Activity of p110α in the complex, No peptide / Activity of p110α in the complex, Peptide (1 uM): normalized to wild-type complex in the absence of peptide; for Activity of p110α in the complex, Peptide (1 uM): phosphotyrosine (IRS-1) peptide 1 uM
Protocol: The ability of p85α mutant proteins to form active complexes with p110α was also assessed. Complexes consisting of p85α protein (either wild-type or mutant, as indicated in Table 3 below) and wild-type p110α were expressed in baculovirus. Activity of p110α in the complexes was assessed using a fluorescence polarization assay with phosphoinositide as the substrate. The assay was conducted in the absence or presence of a phosphotyrosine peptide (referred to as “peptide” in Table 3 below). That peptide corresponds to a phosphotyrosine-containing region of Insulin Receptor Substrate-1 that binds to the SH2 region of p85α and enhances the activity of the wild-type p85α/p110α complex. See Miled et al., Science, 317:239-242 (2007). The p85α mutants tested in Table 3 have mutations in their C-terminal SH2 domains. The activities were normalized to the value obtained for p110α in the wild-type complex in the absence of peptide.

T3 sequence (P42336 whole entry): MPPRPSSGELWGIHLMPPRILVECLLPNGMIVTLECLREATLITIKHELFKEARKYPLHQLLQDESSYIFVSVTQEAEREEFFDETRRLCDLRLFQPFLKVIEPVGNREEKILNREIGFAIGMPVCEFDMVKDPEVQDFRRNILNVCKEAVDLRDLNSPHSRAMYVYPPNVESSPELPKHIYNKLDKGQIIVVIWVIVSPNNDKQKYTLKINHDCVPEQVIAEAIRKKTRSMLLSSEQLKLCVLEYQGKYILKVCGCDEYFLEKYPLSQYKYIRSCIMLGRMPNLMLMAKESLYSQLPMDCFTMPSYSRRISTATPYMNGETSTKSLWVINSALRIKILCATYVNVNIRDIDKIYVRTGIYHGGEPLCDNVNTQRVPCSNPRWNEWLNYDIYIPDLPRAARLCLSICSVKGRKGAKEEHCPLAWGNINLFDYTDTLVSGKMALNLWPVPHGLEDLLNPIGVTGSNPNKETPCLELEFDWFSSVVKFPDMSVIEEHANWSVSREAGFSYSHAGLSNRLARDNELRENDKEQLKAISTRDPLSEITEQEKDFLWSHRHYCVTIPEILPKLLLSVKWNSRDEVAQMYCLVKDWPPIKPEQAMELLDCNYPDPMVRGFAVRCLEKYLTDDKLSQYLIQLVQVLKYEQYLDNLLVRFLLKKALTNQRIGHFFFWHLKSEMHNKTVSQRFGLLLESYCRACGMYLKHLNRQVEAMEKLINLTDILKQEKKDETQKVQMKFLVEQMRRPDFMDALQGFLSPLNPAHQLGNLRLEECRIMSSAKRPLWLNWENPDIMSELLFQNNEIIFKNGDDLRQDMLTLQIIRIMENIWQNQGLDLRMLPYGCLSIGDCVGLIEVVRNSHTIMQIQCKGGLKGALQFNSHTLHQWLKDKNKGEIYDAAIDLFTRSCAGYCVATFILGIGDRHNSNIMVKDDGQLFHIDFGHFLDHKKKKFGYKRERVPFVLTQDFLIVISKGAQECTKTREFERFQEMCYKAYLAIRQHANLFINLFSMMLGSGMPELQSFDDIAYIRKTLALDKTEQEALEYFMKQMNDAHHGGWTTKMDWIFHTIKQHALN
T2 sequence (P42336 whole entry H1047R): as the sequence (P42336 whole entry) above, with H1047R counted along it
T1 sequence (P42336 whole entry E545K): as the sequence (P42336 whole entry) above, with E545K counted along it

Binding of p85α to p110α (p110alpha E545K)	Binding of p85α to p110α (p110alpha H1047R)	Binding of p85α to p110α (p110alpha WT)	Molecule	p110α activity of the complex compared with the wild type complex (in words) (wild-type p110α)	Activity of p110α in the complex, No peptide (wild-type p110α)	Activity of p110α in the complex, Peptide (1 uM) (wild-type p110α)
Y	Y	Y	p85 R574I: mutant form of p85α discovered pursuant to this study	–	–	–
Y	Y	Y	p85 R642stop: mutant form of p85α discovered pursuant to this study	–	–	–
Y	Y	Y	p85 N564D: mutant form of p85α discovered pursuant to this study	increased p110α activity	1.71	2.47
N	N	N	p85 Dominant Negative: known dominant negative form of p85α in which the p110α binding domain from amino acids 479-513 is deleted [reference compound]	–	–	–
N	N	N	p85 R348stop: mutant form of p85α discovered pursuant to this study; truncated	–	–	–
Y	Y	Y	p85 N285H: mutant form of p85α discovered pursuant to this study	–	–	–
Y	Y	Y	p85 R649Q: mutant form of p85α discovered pursuant to this study	decreased p110α activity	0.45	1.7
Y	Y	Y	p85 R543I: mutant form of p85α discovered pursuant to this study	–	–	–

The next lines start with the molecule.

Molecule	Binding of p85α to p110α (p110alpha E545K)	Binding of p85α to p110α (p110alpha H1047R)	Binding of p85α to p110α (p110alpha WT)	p110α activity of the complex compared with the wild type complex (in words) (wild-type p110α)	Activity of p110α in the complex, No peptide (wild-type p110α)	Activity of p110α in the complex, Peptide (1 uM) (wild-type p110α)
p85 A682V: mutant form of p85α discovered pursuant to this study	Y	Y	Y	–	–	–
p85 L449S: mutant form of p85α discovered pursuant to this study	Y	Y	Y	–	–	–
p85 E666K: mutant form of p85α discovered pursuant to this study	Y	Y	Y	comparable to that seen in the wild type complex	0.92	2.54
p85 WT: wild-type p85α, regulatory subunit of PI3K encoded by PIK3R1 [reference compound]	–	–	–	–	1	2.77
p85 N527K: mutant form of p85α discovered pursuant to this study	Y	Y	Y	decreased p110α activity	0.75	1.92
p85 R162stop: mutant form of p85α discovered pursuant to this study; truncated (protein, left off: small tags and cut ends, mutant form of p85α discovered pursuant to this study; truncated) MSAEGYQYRALYDYKKEREEDIDLHLGDILTVNKGSLVALGFSDGQEARPEEIGWLNGYNETTGERGDFPGTYVEYIGRKKISPPTPKPRPPRPLPVAPGSSKTEADVEQQALTLPDLAEQFAPPDIAPPLLIKLVEAIEKKGLECSTLYRTQSSSNLAEL	N	N	N	–	–	–
